Data published in patent publication US20090255014A1 (HELMHOLTZ ZENTRUM F R INFEKTIONSFORSCHUNG, published 2009).

Biological target: T1, native Cpn10 of Oleispira antarctica (Oleispira antarctica, UniProt Q8KM31 1-97)
T1 construct: Co-chaperonin; also called co-chaperonin Cpn10; co-chaperonin
T1 sequence: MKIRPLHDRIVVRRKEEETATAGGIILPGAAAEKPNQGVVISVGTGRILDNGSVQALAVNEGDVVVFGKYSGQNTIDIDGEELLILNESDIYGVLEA
Assay: conclusion from in vitro refolding of denatured mtMDH with Cpn10 and ATP
Excerpt: The behaviour of the stabilized single ring mutant led to the conclusion that at the low temperature, the co-chaperonin Cpn10 could bind even to the heptameric conformation, whereas at elevated temperature presumably Cpn10 could not be released from this heptameric single ring.

B1: stabilized single ring mutant Glu461Ala/Ser463Ala/Val464Ala of Cpn60 of O. antarctica (other)
chain: MAAKDVLFGDSARAKMLVGVNILADAVRVTLGPKGRNVVIEKSFGAPIITKDGVSVAREIELKDKFENMGAQMVKEVASQANDQAGDGTTTATVLAQAIISEGLKSVAAGMNPMDLKRGIDKATAAVVAAIKEQAQPCLDTKAIAQVGTISANADETVGRLIAEAMEKVGKEGVITVEEGKGLEDELDVVEGMQFDRGYLSPYFINNQEKMTVEMENPLILLVDKKIDNLQELLPILENVAKSGRPLLIVAEDVEGQALATLVVNNLRGTFKVAAVKAPGFGDRRKAMLQDLAILTGGQVISEELGMSLETADPSSLGTASKVVIDKENTVIVDGAGTEASVNTRVDQIRAEIESSTSDYDIEKLQERVAKLAGGVAVIKVGAGSEMEMKEKKDRVDDALHATRAAVEEGVVAGGGVALIRALSSVTVVGDNEDQNVGIALALRAMEAPIRQIAGNAGAAGAAVVDKVKSGTGSFGFNASTGEYGDMIAMGILDPAKVTRSSLQAAASIAGLMITTEAMVADAPVEEGAGGMPDMGGMGGMGGMPGMM
notes: also called triple mutant Glu461Ala/Ser463Ala/Val464Ala
binding result: binds
